Measured values as given in patent publication US20030203373A1 (priority 2002, published 2003).
Each block holds one molecule with its values, some of them ahead of it.

Key:
normotensive Wister rats = assay: Bradykinin-potentiating effect on blood pressure in anaesthetized normotensive rats; format: in vivo, rat; settings: Captopril 1.5 × 10^−4 M + Bradykinin 2.5 × 10^−6 M
Protocol: In the in vivo experiments with normotensive rats the animals were previously anaesthetized and after blood pressure stabilization treated with a constant amount of bradykinin. Subsequently, either Captopril or human BPP were administered, again followed by a constant amount of bradykinin. Afterwards the maximum blood pressure drop was determined and, on the basis of bradykinin as a factor 1, the potentiating factor was determined. In the same way, the systolic and diastolic blood pressure, the percentage middle pressure decrease and the time required to come back to the baseline values were measured (see tables 4a to 4j). A detailed experimental description is given below.
2. Measurement of Blood Pressure in Normotensive and Hypertensive Rats
The trials were conducted on female anaesthetized normotensive Wister rats with weight ranging from 210 to 240 g.
The peptide pANP48-57 used for the in vivo assays was synthesized by Biosynthan (Berlin) with a HPLC-determined purity of 98%.
Anaesthetizing was performed by i.p.-administration of 1 ml/kg Ketavit (100 mg/ml)+Rampun (2%).
In order to conduct the blood pressure measurement, a polyethylene catheter was introduced into the Aorta femuralis and connected with a pressure transducer. A Statham-P23A pressure-transducer was linked to a Gould Polygraph and used to determine the arterial blood pressure. A Hg-manometer was used to calibrate the system.
All substances were dissolved and diluted in a physiological sodium chloride solution and introduced into the Vena jugularis via a catheter.
After stabilization of blood pressure (after about 10 minutes) […] body weight of a 2,5 μM bradykinin-solution (Sigma) was administered.
The middle pressure was determined from the measured diastolic (pd) and systolic (ps) blood pressure by using the following formula: pm=(ps−Pd)×0,42+pd.

[1] = molecular target: T1, angiotensin-converting-enzyme derived from pig kidney (pig) (UniProt F1RRW5); assay: cell-based or functional assay
T1 sequence (looked up): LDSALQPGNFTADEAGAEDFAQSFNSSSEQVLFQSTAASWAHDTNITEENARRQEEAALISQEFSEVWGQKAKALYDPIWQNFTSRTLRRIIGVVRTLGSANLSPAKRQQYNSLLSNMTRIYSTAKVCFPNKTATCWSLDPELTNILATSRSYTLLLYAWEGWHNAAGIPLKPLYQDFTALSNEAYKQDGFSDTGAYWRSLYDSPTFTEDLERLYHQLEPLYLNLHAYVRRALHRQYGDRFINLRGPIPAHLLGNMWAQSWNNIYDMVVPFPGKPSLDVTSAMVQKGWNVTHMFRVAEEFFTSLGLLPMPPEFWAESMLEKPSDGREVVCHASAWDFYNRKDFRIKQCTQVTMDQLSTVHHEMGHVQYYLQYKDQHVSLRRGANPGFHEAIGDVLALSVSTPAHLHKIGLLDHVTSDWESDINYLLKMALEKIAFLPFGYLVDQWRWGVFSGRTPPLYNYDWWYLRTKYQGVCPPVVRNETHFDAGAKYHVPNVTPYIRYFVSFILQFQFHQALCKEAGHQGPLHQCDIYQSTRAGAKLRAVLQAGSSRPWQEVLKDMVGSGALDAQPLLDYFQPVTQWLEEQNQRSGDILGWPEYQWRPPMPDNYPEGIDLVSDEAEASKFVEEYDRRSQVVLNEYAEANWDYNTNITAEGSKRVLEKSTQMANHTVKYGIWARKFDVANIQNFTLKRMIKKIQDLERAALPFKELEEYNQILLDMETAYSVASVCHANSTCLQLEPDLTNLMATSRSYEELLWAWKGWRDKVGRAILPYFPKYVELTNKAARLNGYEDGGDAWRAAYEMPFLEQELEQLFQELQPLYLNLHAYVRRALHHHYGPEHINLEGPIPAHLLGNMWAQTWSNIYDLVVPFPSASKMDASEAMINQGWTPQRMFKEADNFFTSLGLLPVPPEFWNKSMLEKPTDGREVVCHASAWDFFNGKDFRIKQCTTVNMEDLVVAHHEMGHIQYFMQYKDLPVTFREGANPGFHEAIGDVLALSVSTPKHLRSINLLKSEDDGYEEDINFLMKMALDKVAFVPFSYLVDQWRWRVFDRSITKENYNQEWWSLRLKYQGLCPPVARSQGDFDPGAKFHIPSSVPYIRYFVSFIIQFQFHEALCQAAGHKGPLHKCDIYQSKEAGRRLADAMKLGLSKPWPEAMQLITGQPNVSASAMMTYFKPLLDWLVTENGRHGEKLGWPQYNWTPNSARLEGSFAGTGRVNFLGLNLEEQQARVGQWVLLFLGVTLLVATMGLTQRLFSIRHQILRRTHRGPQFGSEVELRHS

Molecule: C[C@H](CS)C(=O)N1CCC[C@H]1C(=O)O [Captopril, reference compound]
potentiating factor (factor by which the blood pressure reducing effect of Bradykinin is potentiated, Bradykinin = 1) (normotensive Wister rats): 2
maximal drop of blood pressure (normotensive Wister rats; normotensive rats): 56% ± 17.3

% inhibition at 0.39 µM, A [1]: 10.2%
% inhibition at 0.39 µM, B [1]: 6.82%
% inhibition at 0.39 µM, C [1]: 6.02%
% inhibition at 0.39 µM, D [1]: 0.575%
% inhibition at 0.78125 µM, A [1]: 9.62%
% inhibition at 0.78125 µM, B [1]: 10%
% inhibition at 0.78125 µM, C [1]: 7.72%
% inhibition at 0.78125 µM, D [1]: 10.8%
% inhibition at 1.5625 µM, A [1]: 13.4%
% inhibition at 1.5625 µM, B [1]: 14.9%
% inhibition at 1.5625 µM, C [1]: 9.3%
% inhibition at 1.5625 µM, D [1]: 12.9%
% inhibition at 3.125 µM, A [1]: 21.8%
% inhibition at 3.125 µM, B [1]: 18%
% inhibition at 3.125 µM, C [1]: 16%
% inhibition at 3.125 µM, D [1]: 11.6%
% inhibition at 6.25 µM, A [1]: 31.4%
% inhibition at 6.25 µM, B [1]: 29.2%
% inhibition at 6.25 µM, C [1]: 28%
% inhibition at 6.25 µM, D [1]: 25.7%
% inhibition at 12.5 µM, A [1]: 36.6%
% inhibition at 12.5 µM, B [1]: 36.5%
% inhibition at 12.5 µM, C [1]: 35.3%
% inhibition at 12.5 µM, D [1]: 34.5%
% inhibition at 25 µM, A [1]: 52%
% inhibition at 25 µM, B [1]: 46.2%
% inhibition at 25 µM, C [1]: 49.3%
% inhibition at 50 µM, A [1]: 67.1%
% inhibition at 50 µM, B [1]: 65%
% inhibition at 50 µM, C [1]: 63.6%
% inhibition at 50 µM, D [1]: 56%
% inhibition at 100 µM, A [1]: 79.8%
% inhibition at 100 µM, B [1]: 78.4%
% inhibition at 100 µM, C [1]: 78.4%
% inhibition at 100 µM, D [1]: 78%
% inhibition at 200 µM, A [1]: 89.6%
% inhibition at 200 µM, B [1]: 89.4%
% inhibition at 200 µM, C [1]: 88.5%
% inhibition at 200 µM, D [1]: 88.6%
fluorescence at 0.39 µM, A [1]: 934000
fluorescence at 0.39 µM, B [1]: 969000
fluorescence at 0.39 µM, C [1]: 977000
fluorescence at 0.39 µM, D [1]: 1.03e+06
fluorescence at 0.78125 µM, A [1]: 940000
fluorescence at 0.78125 µM, B [1]: 935000
fluorescence at 0.78125 µM, C [1]: 959000
fluorescence at 0.78125 µM, D [1]: 928000
fluorescence at 1.5625 µM, A [1]: 900000
fluorescence at 1.5625 µM, B [1]: 885000
fluorescence at 1.5625 µM, C [1]: 943000
fluorescence at 1.5625 µM, D [1]: 906000
fluorescence at 3.125 µM, A [1]: 814000
fluorescence at 3.125 µM, B [1]: 853000
fluorescence at 3.125 µM, C [1]: 874000
fluorescence at 3.125 µM, D [1]: 919000
fluorescence at 6.25 µM, A [1]: 715000
fluorescence at 6.25 µM, B [1]: 737000
fluorescence at 6.25 µM, C [1]: 750000
fluorescence at 6.25 µM, D [1]: 773000
fluorescence at 12.5 µM, A [1]: 661000
fluorescence at 12.5 µM, B [1]: 662000
fluorescence at 12.5 µM, C [1]: 674000
fluorescence at 12.5 µM, D [1]: 683000
fluorescence at 25 µM, A [1]: 502000
fluorescence at 25 µM, B [1]: 562000
fluorescence at 25 µM, C [1]: 530000
fluorescence at 25 µM, D [1]: 560000
fluorescence at 50 µM, A [1]: 346000
fluorescence at 50 µM, B [1]: 367000
fluorescence at 50 µM, C [1]: 382000
fluorescence at 50 µM, D [1]: 460000
fluorescence at 100 µM, A [1]: 214000
fluorescence at 100 µM, B [1]: 229000
fluorescence at 100 µM, C [1]: 229000
fluorescence at 100 µM, D [1]: 233000
fluorescence at 200 µM, A [1]: 113000
fluorescence at 200 µM, B [1]: 116000
fluorescence at 200 µM, C [1]: 125000
fluorescence at 200 µM, D [1]: 124000
Molecule: Peptid S547 (SPLPEVPP) (peptide)
